Measurements from patent US20030170763A1.

Biological target: 30 kDa ragweed complete pollen extract disulfide protein allergen (Ambrosia trifida (giant ragweed))
Experiment: Concanavalin A affinity chromatography

percent retained on affinity column: > 90%
Substance: Concanavalin A (from UniProt P02866 30-281)
